Laboratory results from patent US12616740B2, “Methods of using a GIP/GLP1 co-agonist for therapy” (ELI LILLY AND COMPANY, priority 2018, dated 2026).

Tests used:
[1] = NCT03311724: nausea, vomiting and diarrhea, new events per interval; format: in vivo, human
Source text: (§1) This is a 12-week treatment with a 1 week screening (Visit 1) followed by a 1 week lead-in (Visit 2), then 12 weeks of treatment (Visits 3-10, including telephone visits), then followed by 4-week safety follow-up. It is a Phase 2 study designed to examine the efficacy and tolerability of subcutaneously once-weekly tirzepatide compared with placebo in patients with type 2 diabetes who have inadequate glycemic control with diet and exercise alone or with a stable dose of metformin. The study was designed per below and conducted to refine the escalation scheme.

[2] = NCT03311724: weight loss at Week 12; format: in vivo, human
Source text: as §1

[3] = LY 12 mg Group 3 (tirzepatide 4 mg × 4, 8 mg × 4, 12 mg × 4 once weekly), LOCF Week 12 (N = 27)
[4] = LY 12 mg Group 3 (tirzepatide 4 mg × 4, 8 mg × 4, 12 mg × 4 once weekly), Week 12 mITT on-treatment (N = 27)
[5] = LY 15 mg-Group 1 (tirzepatide 2.5 mg × 2, 5 mg × 2, 10 mg × 4, 15 mg × 4 once weekly), LOCF Week 12 (N = 27)
[6] = LY 15 mg-Group 1 (tirzepatide 2.5 mg × 2, 5 mg × 2, 10 mg × 4, 15 mg × 4 once weekly), Week 12 mITT on-treatment (N = 23)
[7] = LY 15 mg-Group 2 (tirzepatide 2.5 mg × 4, 7.5 mg × 4, 15 mg × 4 once weekly), LOCF Week 12 (N = 27)
[8] = LY 15 mg-Group 2 (tirzepatide 2.5 mg × 4, 7.5 mg × 4, 15 mg × 4 once weekly), Week 12 mITT on-treatment (N = 26)

tirzepatide [LY]
Nausea Vomiting and Diarrhea: m, number of patients who experienced new event during interval ([1]; LY12 mg Group 3 (tirzepatide 4 mg × 4, 8 mg × 4, 12 mg × 4 once weekly), N = 29, Follow-up): m = 1; | Nausea Vomiting and Diarrhea: m, number of patients who experienced new event during interval ([1]; LY12 mg Group 3 (tirzepatide 4 mg × 4, 8 mg × 4, 12 mg × 4 once weekly), N = 29, Overall): m = 14; | Nausea Vomiting and Diarrhea: m, number of patients who experienced new event during interval ([1]; LY12 mg Group 3 (tirzepatide 4 mg × 4, 8 mg × 4, 12 mg × 4 once weekly), N = 29, T/Wk 0): m = 9; | Nausea Vomiting and Diarrhea: m, number of patients who experienced new event during interval ([1]; LY12 mg Group 3 (tirzepatide 4 mg × 4, 8 mg × 4, 12 mg × 4 once weekly), N = 29, T/Wk 1): m = 5; | Nausea Vomiting and Diarrhea: m, number of patients who experienced new event during interval ([1]; LY12 mg Group 3 (tirzepatide 4 mg × 4, 8 mg × 4, 12 mg × 4 once weekly), N = 29, T/Wk 2): m = 1; | Nausea Vomiting and Diarrhea: m, number of patients who experienced new event during interval ([1]; LY12 mg Group 3 (tirzepatide 4 mg × 4, 8 mg × 4, 12 mg × 4 once weekly), N = 29, T/Wk 3): m = 3; | Nausea Vomiting and Diarrhea: m, number of patients who experienced new event during interval ([1]; LY12 mg Group 3 (tirzepatide 4 mg × 4, 8 mg × 4, 12 mg × 4 once weekly), N = 29, T/Wk 4): m = 3; | Nausea Vomiting and Diarrhea: m, number of patients who experienced new event during interval ([1]; LY12 mg Group 3 (tirzepatide 4 mg × 4, 8 mg × 4, 12 mg × 4 once weekly), N = 29, T/Wk 5): m = 0; | Nausea Vomiting and Diarrhea: m, number of patients who experienced new event during interval ([1]; LY12 mg Group 3 (tirzepatide 4 mg × 4, 8 mg × 4, 12 mg × 4 once weekly), N = 29, T/Wk 6): m = 2; | Nausea Vomiting and Diarrhea: m, number of patients who experienced new event during interval ([1]; LY12 mg Group 3 (tirzepatide 4 mg × 4, 8 mg × 4, 12 mg × 4 once weekly), N = 29, T/Wk 7): m = 1; | Nausea Vomiting and Diarrhea: m, number of patients who experienced new event during interval ([1]; LY12 mg Group 3 (tirzepatide 4 mg × 4, 8 mg × 4, 12 mg × 4 once weekly), N = 29, T/Wk 8): m = 4; | Nausea Vomiting and Diarrhea: m, number of patients who experienced new event during interval ([1]; LY12 mg Group 3 (tirzepatide 4 mg × 4, 8 mg × 4, 12 mg × 4 once weekly), N = 29, T/Wk 9): m = 1; | Nausea Vomiting and Diarrhea: m, number of patients who experienced new event during interval ([1]; LY12 mg Group 3 (tirzepatide 4 mg × 4, 8 mg × 4, 12 mg × 4 once weekly), N = 29, T/Wk 10): m = 1; | Nausea Vomiting and Diarrhea: m, number of patients who experienced new event during interval ([1]; LY12 mg Group 3 (tirzepatide 4 mg × 4, 8 mg × 4, 12 mg × 4 once weekly), N = 29, T/Wk 11): m = 0; | Nausea Vomiting and Diarrhea: m, number of patients who experienced new event during interval ([1]; LY12 mg Group 3 (tirzepatide 4 mg × 4, 8 mg × 4, 12 mg × 4 once weekly), N = 29, T/Wk 12): m = 1; | Nausea Vomiting and Diarrhea: m, number of patients who experienced new event during interval ([1]; LY15 mg-Group 1 (tirzepatide 2.5 mg × 2, 5 mg × 2, 10 mg × 4, 15 mg × 4 once weekly), N = 28, Follow-up): m = 0; | Nausea Vomiting and Diarrhea: m, number of patients who experienced new event during interval ([1]; LY15 mg-Group 1 (tirzepatide 2.5 mg × 2, 5 mg × 2, 10 mg × 4, 15 mg × 4 once weekly), N = 28, Overall): m = 16; | Nausea Vomiting and Diarrhea: m, number of patients who experienced new event during interval ([1]; LY15 mg-Group 1 (tirzepatide 2.5 mg × 2, 5 mg × 2, 10 mg × 4, 15 mg × 4 once weekly), N = 28, T/Wk 0): m = 6; | Nausea Vomiting and Diarrhea: m, number of patients who experienced new event during interval ([1]; LY15 mg-Group 1 (tirzepatide 2.5 mg × 2, 5 mg × 2, 10 mg × 4, 15 mg × 4 once weekly), N = 28, T/Wk 1): m = 3; | Nausea Vomiting and Diarrhea: m, number of patients who experienced new event during interval ([1]; LY15 mg-Group 1 (tirzepatide 2.5 mg × 2, 5 mg × 2, 10 mg × 4, 15 mg × 4 once weekly), N = 28, T/Wk 2): m = 2; | Nausea Vomiting and Diarrhea: m, number of patients who experienced new event during interval ([1]; LY15 mg-Group 1 (tirzepatide 2.5 mg × 2, 5 mg × 2, 10 mg × 4, 15 mg × 4 once weekly), N = 28, T/Wk 3): m = 1; | Nausea Vomiting and Diarrhea: m, number of patients who experienced new event during interval ([1]; LY15 mg-Group 1 (tirzepatide 2.5 mg × 2, 5 mg × 2, 10 mg × 4, 15 mg × 4 once weekly), N = 28, T/Wk 4): m = 5; | Nausea Vomiting and Diarrhea: m, number of patients who experienced new event during interval ([1]; LY15 mg-Group 1 (tirzepatide 2.5 mg × 2, 5 mg × 2, 10 mg × 4, 15 mg × 4 once weekly), N = 28, T/Wk 5): m = 6; | Nausea Vomiting and Diarrhea: m, number of patients who experienced new event during interval ([1]; LY15 mg-Group 1 (tirzepatide 2.5 mg × 2, 5 mg × 2, 10 mg × 4, 15 mg × 4 once weekly), N = 28, T/Wk 6): m = 2; | Nausea Vomiting and Diarrhea: m, number of patients who experienced new event during interval ([1]; LY15 mg-Group 1 (tirzepatide 2.5 mg × 2, 5 mg × 2, 10 mg × 4, 15 mg × 4 once weekly), N = 28, T/Wk 7): m = 0; | Nausea Vomiting and Diarrhea: m, number of patients who experienced new event during interval ([1]; LY15 mg-Group 1 (tirzepatide 2.5 mg × 2, 5 mg × 2, 10 mg × 4, 15 mg × 4 once weekly), N = 28, T/Wk 8): m = 4; | Nausea Vomiting and Diarrhea: m, number of patients who experienced new event during interval ([1]; LY15 mg-Group 1 (tirzepatide 2.5 mg × 2, 5 mg × 2, 10 mg × 4, 15 mg × 4 once weekly), N = 28, T/Wk 9): m = 0; | Nausea Vomiting and Diarrhea: m, number of patients who experienced new event during interval ([1]; LY15 mg-Group 1 (tirzepatide 2.5 mg × 2, 5 mg × 2, 10 mg × 4, 15 mg × 4 once weekly), N = 28, T/Wk 10): m = 3; | Nausea Vomiting and Diarrhea: m, number of patients who experienced new event during interval ([1]; LY15 mg-Group 1 (tirzepatide 2.5 mg × 2, 5 mg × 2, 10 mg × 4, 15 mg × 4 once weekly), N = 28, T/Wk 11): m = 2; | Nausea Vomiting and Diarrhea: m, number of patients who experienced new event during interval ([1]; LY15 mg-Group 1 (tirzepatide 2.5 mg × 2, 5 mg × 2, 10 mg × 4, 15 mg × 4 once weekly), N = 28, T/Wk 12): m = 0; | Nausea Vomiting and Diarrhea: m, number of patients who experienced new event during interval ([1]; LY15 mg-Group 2 (tirzepatide 2.5 mg × 4, 7.5 mg × 4, 15 mg × 4 once weekly), N = 28, Follow-up): m = 0; | Nausea Vomiting and Diarrhea: m, number of patients who experienced new event during interval ([1]; LY15 mg-Group 2 (tirzepatide 2.5 mg × 4, 7.5 mg × 4, 15 mg × 4 once weekly), N = 28, Overall): m = 13; | Nausea Vomiting and Diarrhea: m, number of patients who experienced new event during interval ([1]; LY15 mg-Group 2 (tirzepatide 2.5 mg × 4, 7.5 mg × 4, 15 mg × 4 once weekly), N = 28, T/Wk 0): m = 4; | Nausea Vomiting and Diarrhea: m, number of patients who experienced new event during interval ([1]; LY15 mg-Group 2 (tirzepatide 2.5 mg × 4, 7.5 mg × 4, 15 mg × 4 once weekly), N = 28, T/Wk 1): m = 4; | Nausea Vomiting and Diarrhea: m, number of patients who experienced new event during interval ([1]; LY15 mg-Group 2 (tirzepatide 2.5 mg × 4, 7.5 mg × 4, 15 mg × 4 once weekly), N = 28, T/Wk 2): m = 2; | Nausea Vomiting and Diarrhea: m, number of patients who experienced new event during interval ([1]; LY15 mg-Group 2 (tirzepatide 2.5 mg × 4, 7.5 mg × 4, 15 mg × 4 once weekly), N = 28, T/Wk 3): m = 3; | Nausea Vomiting and Diarrhea: m, number of patients who experienced new event during interval ([1]; LY15 mg-Group 2 (tirzepatide 2.5 mg × 4, 7.5 mg × 4, 15 mg × 4 once weekly), N = 28, T/Wk 4): m = 6; | Nausea Vomiting and Diarrhea: m, number of patients who experienced new event during interval ([1]; LY15 mg-Group 2 (tirzepatide 2.5 mg × 4, 7.5 mg × 4, 15 mg × 4 once weekly), N = 28, T/Wk 5): m = 2; | Nausea Vomiting and Diarrhea: m, number of patients who experienced new event during interval ([1]; LY15 mg-Group 2 (tirzepatide 2.5 mg × 4, 7.5 mg × 4, 15 mg × 4 once weekly), N = 28, T/Wk 6): m = 3; | Nausea Vomiting and Diarrhea: m, number of patients who experienced new event during interval ([1]; LY15 mg-Group 2 (tirzepatide 2.5 mg × 4, 7.5 mg × 4, 15 mg × 4 once weekly), N = 28, T/Wk 7): m = 2; | Nausea Vomiting and Diarrhea: m, number of patients who experienced new event during interval ([1]; LY15 mg-Group 2 (tirzepatide 2.5 mg × 4, 7.5 mg × 4, 15 mg × 4 once weekly), N = 28, T/Wk 8): m = 5; | Nausea Vomiting and Diarrhea: m, number of patients who experienced new event during interval ([1]; LY15 mg-Group 2 (tirzepatide 2.5 mg × 4, 7.5 mg × 4, 15 mg × 4 once weekly), N = 28, T/Wk 9): m = 2; | Nausea Vomiting and Diarrhea: m, number of patients who experienced new event during interval ([1]; LY15 mg-Group 2 (tirzepatide 2.5 mg × 4, 7.5 mg × 4, 15 mg × 4 once weekly), N = 28, T/Wk 10): m = 0; | Nausea Vomiting and Diarrhea: m, number of patients who experienced new event during interval ([1]; LY15 mg-Group 2 (tirzepatide 2.5 mg × 4, 7.5 mg × 4, 15 mg × 4 once weekly), N = 28, T/Wk 11): m = 3; | Nausea Vomiting and Diarrhea: m, number of patients who experienced new event during interval ([1]; LY15 mg-Group 2 (tirzepatide 2.5 mg × 4, 7.5 mg × 4, 15 mg × 4 once weekly), N = 28, T/Wk 12): m = 0; | body weight vs placebo (in words) ([2]; 12 mg and 15 mg tirzepatide doses, at 12 weeks): significant reductions in body weight compared with placebo | % of Patients Achieving Weight loss ≥5% [2, 3]: 63.0% | % of Patients Achieving Weight loss ≥10% [2, 3]: 18.5% | odds ratio vs. placebo, Weight loss ≥5% [2, 3]: 22.7 | odds ratio vs. placebo, Weight loss ≥10% [2, 3]: 10.4 | % of Patients Achieving Weight loss ≥5% [2, 4]: 63.0% | % of Patients Achieving Weight loss ≥10% [2, 4]: 18.5% | odds ratio vs. placebo, Weight loss ≥5% [2, 4]: 20.7 | odds ratio vs. placebo, Weight loss ≥10% [2, 4]: 9.3 | % of Patients Achieving Weight loss ≥5% [2, 5]: 59.3% | % of Patients Achieving Weight loss ≥10% [2, 5]: 14.8% | odds ratio vs. placebo, Weight loss ≥5% [2, 5]: 20.5 | odds ratio vs. placebo, Weight loss ≥10% [2, 5]: 8.0 | % of Patients Achieving Weight loss ≥5% [2, 6]: 56.5% | % of Patients Achieving Weight loss ≥10% [2, 6]: 13.0% | odds ratio vs. placebo, Weight loss ≥5% [2, 6]: 17.1 | odds ratio vs. placebo, Weight loss ≥10% [2, 6]: 6.2 | % of Patients Achieving Weight loss ≥5% [2, 7]: 55.6% | % of Patients Achieving Weight loss ≥10% [2, 7]: 18.5% | odds ratio vs. placebo, Weight loss ≥5% [2, 7]: 17.6 | odds ratio vs. placebo, Weight loss ≥10% [2, 7]: 10.6 | % of Patients Achieving Weight loss ≥5% [2, 8]: 57.7% | % of Patients Achieving Weight loss ≥10% [2, 8]: 19.2% | odds ratio vs. placebo, Weight loss ≥5% [2, 8]: 17.4 | odds ratio vs. placebo, Weight loss ≥10% [2, 8]: 9.7
